Our source for the fold increase of association against the wild-type strain values is publication PMC6344880.

The assay has as its target 40S subunits of uS9/S16-R143G, uS9/S16-R143E and uS9/S16-R144 strains (S. cerevisiae). In words: co-sedimentation + cross-linking; formaldehyde cross-linking, whole cell extracts resolved on 10–30% sucrose gradients, Western blot of the 43/48S PIC (40S) fractions for eIF1, eIF2α and uS7, signals normalised to uS7; also in strains carrying the TIF5-G31R allele (Figure 6A), which reversed the accumulation of eIF2.

Turning to “eukaryotic initiation factor 1 (eIF1) (from UniProt P32911 1-108) (natural protein)”, the fold increase of association against the wild-type strain lay within 2.5 to 3 fold.
